According to the nanobody polyreactivity screen of Harvey et al. (2022):

Experiment: yeast display, Sf9 membrane polyspecificity reagent, FACS + sequencing; frameworks hold sequencing errors
Procedure, shortened: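 A synthetic nanobody library was expressed on Saccharomyces cerevisiae BJ5465 by galactose induction for 36–48 hours. The library was stained for 1 hour at 4 °C with 10% biotinylated, detergent-solubilized Sf9 membrane reagent and enriched with streptavidin microbeads before FACS. Low and high (top ~1%) gates were set on anti-HA fluorescence for expression and streptavidin fluorescence for reagent binding, and each polyreactivity label reflects the gate of origin.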

| Sequence | polyreactivity (PSR sort gate) |
| --- | --- |
| QVQLVESGGGLVQAVGSLRLSCAASGITFKWYAMGSYRHAPGKERELVAAISWSTGSTYYADSVKGRFTISRDNAKNTVYLQMNSLKPEDTAVYYCAARVKRPQTGYDRRYGYWGQGTQVTVSS | high polyreactivity |
| QVQLVESGGGLVQAGGSLRLSCAASGGTFGAYAMGWYRQAPGKERELVAAINVGGGSTYYADSVKGRFTISRDNAKNTVYLQMNSLKPEDTAVYYCAKDLYDGYWRGDYWGQGTQVTVSS | low polyreactivity |
| QVQLVESGGGLVQAGGSLRLSCAASGRTFRWYAMGWYRQAPGKERELVAAISQSGGSTYYADSVKGRFTISRDNAKNSVYLQMNSLKPVDTAVYYCAKVTYRGYYSWGQGTQLTVSS | high polyreactivity |
| QVQLVESGGGLVQAGGSLRLSCAASGLTFYVYAMGWYRQAPGKERELVAAINWSGGNTYYADSVKGRFTISRDNAKNTVYLQMNSLKPEDTAVYYCAAELYYPVGFDYWGQGTQVTVSS | high polyreactivity |
| QVQLVESGGGLVQAGGSLRLSCAASGSTFKKYAMGWYRQAPGKERELVAAITWTGGSTYYADSVKGRFTISRDNAKNTVYFQMNSLKPEDTAVYYCAAYKTYAVKYYWGQGTQVTVSS | high polyreactivity |
| QVQHVESRGGLVQAGGSLRLSCAASGRIFGTYGMGRYRQAPGKERELVAAINWRGGSTYYADSVKGRFTISRDNAKNTVYLQMNSLIPEDTAVYYCNARLYRKRLGYWGQGTQVTVSS | high polyreactivity |
| QVQLVESGGGLVQAGGSLRLSCAASGLIFTYYAMGWYRQAPGKERELVAAITSGGRTNYADSVKGRFTISRDNAKNTVYLQMNSLKPEDTAVYYCAATSSWRANYRTWVYRYDYWGQGTQVTVSS | high polyreactivity |
| QVQLEESGGGLVQAGGSLRLSCAASGFIFLLNFMGWYRQAPAKDRELVAGNRSSTASTYYADSVKGRFTISRDNAKNTFYLEMNCLKPEDTAVSYCAAVSGWQYEYYSWGQGTQVTVSS | low polyreactivity |
| QVQLVESGGGLVQAGGSLRLSCAASGLIFRRYAMGWYRQAPGKERELVAVISSGGRTYYADSVKGRFTISRDNAKNTVFLQMNSLKPEDTAVYYCAARTRSYWGTYGSYHYDYWGQGTQVTVSS | high polyreactivity |
| QVQLVQSAGGLVQAGGSLRLSCAASGFTFVKYAMGWYRQAPGKERELLAVISRRGGSTYYADSVKGRFTISRDNAKNTVYLHMNSLKPEDTAVYYCAAVYYLYSAWRYDYWGQGTQVTVSS | high polyreactivity |
| QVHLVESGGGLVQAGGSLRLSCAASGSIFRNNAMGWYRQAPGKARELVAVISRSGGSTYYADSVKGRFTISRDNAKNTVYLDMNSLKPEDTAVYYCDVGYWGRLGFRGYGYWGQGTQVTVSS | low polyreactivity |
| QVQLVESGGGLVQAGGSLRLSCAASGRTFRWNAMGWYRQAPGKERELVAAISSGGSTYYADSVKGRFTISRDNAKNTVYFQMNSLKPEDTAVYYCNKYYVRAYDTQEYDYWGQGTQVTVSS | high polyreactivity |
| QVQLVETGGGLVQAGGSLRLSCAASGSTFGINAMGWYRQAPGKERELVAAITASGCRTYYADSVKGRFTISRDNAKNTVYLQMNSLKPEDNAVYYCAARGTYYRRYDYWGQGTQVTVSS | low polyreactivity |
| QVQLVESGGGLVQAGGSLRLRCAASGRTFDGYAMGWYRQAHGKERELVAAISKRGGSTYYADSVKGRCTISRDNAKNSVYFQMNSLKPEDTAVYYCNKRYFGDQTWVGGDSWGQGTQVTVSS | high polyreactivity |
| QVQLVESGGGLVQAGGSLRLSCAASGYTSYVYAMGWYRQAPGKERELVAAISLRTASTYYADSVKGRFTISRDNAKNTVYLQMNSLKPEDTAVYYCARGRETYRYCYRLNYWGQGTQVTVSS | high polyreactivity |
| QVQLGESGGGLVQAGGSLRLSCAASGSIFRYYVMGWYRQAPGKERELVATISRDSSRNYADSVKGRFTISRDNAKNTVYLQMNSLKPEDTAVYYCNTEGGVIRSYWYDYWGQGTQVTVSS | low polyreactivity |
| QVQLVESGGGLVQAGASRRLSCAASGSNFASYAMGWYRQAPGKERELVAAITRRGGSTDYADSVKGRFTISRDNEKYTVDLHMNLLKPEDTAVYYCPTYSYPERTGGQRTHYYWGQGTQVTVSS | high polyreactivity |
| QVQLVESGGGLVQAGGSLRLSCAASGRIFYGYAMGWYRQAPGKERELVAAITRSSSTYYADSVKGRFTISRDNAKNTVYLQMNSLKPEDTAVYYCNARVWAKYDYWGQGTQVTVSS | high polyreactivity |
| QVQLVESGGGLVQAGGSLRLRCAATGFISVTYAMGWYRQAPGKERELVAAITYSGGSTYYADSVKGRFTISRDNAKNTVYLQMNSLKPEDTAVYYCATEPQSDYSYDYWGQGTQVTVSS | low polyreactivity |
| QVQLVESGGGLVQAGGSLRLICAASGGTFSHNDMGWYRQAPGKEMELVASINSGGSTNYADSVKGRFTISRDNAKNTVYLQMNSLKPEDSAVYYCAADVEGWTVESDVYRVGYDYWGHGTQVTVSS | low polyreactivity |
| QVQLVESGGGLVQAGGSLRLSCAASGSIFESYVMGWYRQAPGKERELVAAISSGGSTYYADSVKGRFTISRDNAKNTVYLQMNSLKPEDTAVYYCAKRSHTYSVPGVYNEGDYWGQGTQVTVSS | low polyreactivity |
| QVQLLESGGGLVQAGGSLRLSCAASGRIFNYNVMGWYRQAPGKERELVAAISRRGTSTFYADSVKGRFTISRDNAKNTVYLQMNSLIPVDTAVYYCAADFYSNHYDYWGQGTQVTVSS | high polyreactivity |

| Sequence | polyreactivity (PSR sort gate) |
| --- | --- |
| QVQLVESGRGLVQAGGSLRLSCAASGSIFYNNAMGWYRQAPGKERELVAAIRSTGTRTYYADSVKGRFTISRDNAKNTVYLQMNSLKPEDTAVYYCAVGDYGLWSYDCWGQGTQVTVSS | low polyreactivity |
| QVQLVESGGGLLQAGGSLRLSCAASGSIFYRYAMGWYRQAPWKERELVAAISRSGASTYYADSVKGRFTISRDNAKNTVYLQMNSLKPEDTAVYYCAAYFATSRLPVRYDYWGQGTQVTVSS | high polyreactivity |
| QVQLVESGGGLVQAGGSLRLSSAASGSIFETYAMGWSRQAPGKERELVAAITQSGGSTYYADSVKGRFTISRDNAKNTVYLQMNSLKPEDTAVYYCAADLVVWWKWGYEYWGQGTQVTVSS | low polyreactivity |
| QVQLVESGGGLVQAGGSLRLSCAASGRIFWHNAMGWYRQAPGKERELVAAITGGGSTYYADSVKGRFTISRDNAKNTVYLQMNSLKPEDTAVYYCATLGSLRYYWPGYDYWGQGTQVTVSS | low polyreactivity |
| QVQLVESGGGLVQAGGSLRLSCAASGNTLDAYAMGWYRQAPGKERELVASITYRGGSTYYADSVKGRFTISRDNAKNTVYLQMNSLKPEDTAVYYCAAAYQKSPITPKMDYWGQGTQVTVSS | low polyreactivity |
| QVQLVESGGGLDQAGGSLRLTCAASGSIFRWYAMGWYRQAPGKERELVAAISRGASTNYADSVKGRFTISRDNAKNTVYLKMNSLKPEDTAVYFCAKRTTRLATYDYWGQGTQVTVSS | high polyreactivity |
| QVQLVESGGGLVQAGGSLRLSCAASGFTLTGNAMGWYRQAPGKERELVAAISRNGGSTFYADSVKGRFTISRDNAKNTVYLQMNSLKPEDTAVYYCNASRFRHSAYKYDSWGQGTQVTVSS | high polyreactivity |
| QVQLVESGGGLVQAGGSLRLSCAASGFIFEHYAMGWYRQAPGKERELVARISWRGGSTYYGDSVKGRFTISRDNAKNTVYLQMNSLKPEDTAVYYCAKYAHGHKWYGYWGQGTQVTVSS | low polyreactivity |
| QVQLVESGGGLVQAGGSLRLSCAASGSIFADYVMGWYRRAPGKERELVAAITRRGRTYYADSVKGRFTISRDNAKNTVYLQMNSLKPEDTAVYYCAKVASGKIDSWGQGTQVTVSS | low polyreactivity |
| QVQLVESGGGLVQAGGSLRLSCAASGRILKRNSMGWYRQAPGKERELVAAITSSGGSTYADSVKGRFTISRDNEKNTVYLQMNSLKPEDTAVYYCNAGYKRPWSHKYYWGQGTQVTVSS | low polyreactivity |
| QVQLVESGGGLVQAGGSLRLSCAASGSIFSYYAMGWYRQAPGKERELVAAISYTGGTTYYADSVKGRFTISRDNAKNTVYLQMNSLKPEDTAVYYCAAQWWWNRPVRYEYWGQGTQVTVSS | low polyreactivity |
| QVQLVESGGGLVQAGGNLRLSCAASGRTFRFNAMGWYRQAPGKERELVAAISFRGGSTYYADSVKGRFTISRDNAKNTVYLQMTSLKPEDTAVYYCAADNPYQGRKFDYWGQGTQVSVSS | high polyreactivity |
| QVHLVESGGGLVQEGGSLRLSCAASGIIFLWYTMGWYRQAPGKERELVATISWGGGSTYADSVNGRFTISRDNAKNTVYIQMYILQPEDTAVYYCAADNRDFRGQGYDYWGQGTQVTVSS | low polyreactivity |
| QVKLVESGGGLVQAGGSLRLSCAPSARIFDIYPLGWSRQAPGKERELVAGITSVGSTNYADSVKGRFTISRDNAKYTVYLQMTSLNPEDTAVYDCASVTSVHSEVDYWGQGTQVTVSS | low polyreactivity |
| QVQLVESGGGLVQAGGSLRLSCAASGITFRRYTMGWYIQAPGKERELVATISLSDGNTYYADSVKGRFTISRDNAKNTVYLQMNSLKPEDTAVYYCNARHTWHQTYDYWGQGTQVTVSS | low polyreactivity |
| QLQLVESGGGLVQAGGSLRLSCAASGRIFSPYAMGWYSQAPGTASELVARISWRGSRTYFADSVKRRFTISRDNAKNTVYLQMNSLKPEDTAVYYCNAVVYRKPLRRDYWGQGTQVTVSS | high polyreactivity |
| QVQLVESGGGLVQAGGSLRLSCAASGSIFLYNAMGWYIQAPGKERELVAAISRSSTSTYYADSVKGRFTISRDNAKNTVYLQMNSLKPEDTAVYYCAARGRVTYWGQGTQVTVSS | high polyreactivity |
| QVQLEESGGGLVQAGGSLRLSCAASGFIITWYTMGWYRQAPGKERELVAAITSGGNTNYADSVKGRFTISRDNAKNTVYLQMNCLKPEDTAVYYCARGYLASRLKFAKYDYWGQGTQVTVSS | high polyreactivity |
| QVQLVETGGGVVHAGGSLRLSCAASGRIFRVDDMGWYRKAPGQERELVATINPTGGSTSYADSVKGRFTNSRDNAKNTVYLQMNSLTTEDTAVYYCAADCWYSVRKNWSRSGSFPFDYWRQGTQVTVSS | high polyreactivity |
| QVQLVESWGGLVQAGGSLRLSCADSGRIFLRNTMGWYRQAPGKERELVATISKSAGSTYYADSVKGRFTISRDNAKNSVYLQMNSLKPEDTAVYYCATSRYLKLGYDYWGQGTQVTVSS | high polyreactivity |
| QDQLVESGGGLVQAGGSLRLICAASGRIFGVNAMGWYRQAPGKERELVAVISSGGSTYYADSVKGRFTISRDNAKNTVYLQMNSLKPEDTAVYYCAAEIYFFVSYDYWGQGTQVTVSS | low polyreactivity |
